According to patent US20050008615A1 (GlaxoSmithKline, published 2005):
Where “and” joins values, the source holds several entries; their conditions need not be identical. Equal values may be shown once.

T1: IL-18 receptor alpha chain (UniProt Q13478 19-329, limits assumed)
T1 construct: also called IL-18Rα; IL-18 Rα
T1 sequence (looked up): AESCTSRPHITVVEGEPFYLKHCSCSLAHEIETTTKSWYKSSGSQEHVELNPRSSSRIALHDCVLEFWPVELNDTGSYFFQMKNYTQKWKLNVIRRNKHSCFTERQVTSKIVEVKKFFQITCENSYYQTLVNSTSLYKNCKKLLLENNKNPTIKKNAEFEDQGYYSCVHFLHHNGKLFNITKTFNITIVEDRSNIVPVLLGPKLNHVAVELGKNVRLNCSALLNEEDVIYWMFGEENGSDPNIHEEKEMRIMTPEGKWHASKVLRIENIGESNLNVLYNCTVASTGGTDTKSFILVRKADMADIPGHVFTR


Tests used:
[1] = molecular target: T1, IL-18 receptor alpha chain; experiment: SPR (BIAcore)
[2] = molecular target: T2, IL-18 receptor (heterodimeric surface receptor composed of α- and β-chains) on KG-1 cells; experiment: cell-based or functional assay
[3] = molecular target: T2, IL-18 receptor (heterodimeric surface …); experiment: cell-based or functional assay; remark: listed apart in the source

| Binder | Kd [1] [µM] | NF-κB bioassay, reduction in potency relative to the native IL-18 [2] [fold] | NF-κB KG-1 EC50 [3] | NF-κB KG-1 EC50 (ng/ml), av. [3] [ng/mL] |
| --- | --- | --- | --- | --- |
| human IL-18 C38S, C68D, D157C (SEQ ID NO:8) (ligand, Non-pegylated substitution mutant; also called IL-18 C157 (C38S, C68D, D157C)) YFGKLESKLSVIRNLNDQVLFIDQGNRPLFEDMTDSDSRDNAPRTIFIISMYKDSQPRGMAVTISVKDEKISTLSCENKIISFKEMNPPDNIKDTKSDIIFFQRSVPGHDNKMQFESSSYEGYFLACEKERDLFKLILKKEDELGDRSIMFTVQNEC | 0.196 | ~10 | 0.004 mg/L | 4 |
| human IL-18 C38S, C68S, L144C (SEQ ID NO:9) monopegylated at C144 with 30K PEG (ligand, methoxy polyethylene glycol maleimide, 30,000 Da, on Cys 144, also called IL-18 C144PEG30K) YFGKLESKLSVIRNLNDQVLFIDQGNRPLFEDMTDSDSRDNAPRTIFIISMYKDSQPRGMAVTISVKSEKISTLSCENKIISFKEMNPPDNIKDTKSDIIFFQRSVPGHDNKMQFESSSYEGYFLACEKERDLFKLILKKEDECGDRSIMFTVQNED | 8.26 | – | 0.044 mg/L | 44 |
| human IL-18 C38S, C68D, L144C (SEQ ID NO:7) monopegylated at C144 with 40K PEG (ligand, methoxy polyethylene glycol maleimide, 40,000 Da, on Cys 144, also called IL-18 C144PEG40K) YFGKLESKLSVIRNLNDQVLFIDQGNRPLFEDMTDSDSRDNAPRTIFIISMYKDSQPRGMAVTISVKDEKISTLSCENKIISFKEMNPPDNIKDTKSDIIFFQRSVPGHDNKMQFESSSYEGYFLACEKERDLFKLILKKEDECGDRSIMFTVQNED | 5.35 | – | 0.271 mg/L and 0.33 mg/L | 300 |
| human IL-18 C38S, C68D, L144C (SEQ ID NO:7) monopegylated at C144 with 30K PEG (ligand, methoxy polyethylene glycol maleimide, 30,000 Da, on Cys 144, also called IL-18 C144PEG30K) YFGKLESKLSVIRNLNDQVLFIDQGNRPLFEDMTDSDSRDNAPRTIFIISMYKDSQPRGMAVTISVKDEKISTLSCENKIISFKEMNPPDNIKDTKSDIIFFQRSVPGHDNKMQFESSSYEGYFLACEKERDLFKLILKKEDECGDRSIMFTVQNED | 4.26 | – | 0.038 mg/L | 38 |
| human IL-18 C38S, C68S, D157C (SEQ ID NO:10) monopegylated at C157 with 20K PEG (ligand, methoxy polyethylene glycol maleimide, 20,000 Da, on Cys 157, also called IL-18 C157PEG20K; 157C-20K) YFGKLESKLSVIRNLNDQVLFIDQGNRPLFEDMTDSDSRDNAPRTIFIISMYKDSQPRGMAVTISVKSEKISTLSCENKIISFKEMNPPDNIKDTKSDIIFFQRSVPGHDNKMQFESSSYEGYFLACEKERDLFKLILKKEDELGDRSIMFTVQNEC | 5.5 | – | 0.049 mg/L and 0.059 mg/L | 54 |
| human IL-18 C38S, C68D, L144C (SEQ ID NO:7) (ligand, Non-pegylated substitution mutant; also called IL-18 C144 (C38S, C68D, L144C)) YFGKLESKLSVIRNLNDQVLFIDQGNRPLFEDMTDSDSRDNAPRTIFIISMYKDSQPRGMAVTISVKDEKISTLSCENKIISFKEMNPPDNIKDTKSDIIFFQRSVPGHDNKMQFESSSYEGYFLACEKERDLFKLILKKEDECGDRSIMFTVQNED | 0.222 | ~10 | 0.0035 mg/L and 0.0016 mg/L | 2.6 |
| human IL-18 C38S, C68S, L144C (SEQ ID NO:9) (ligand, Non-pegylated substitution mutant; also called IL-18 C144 (C38S, C68S, L144C)) YFGKLESKLSVIRNLNDQVLFIDQGNRPLFEDMTDSDSRDNAPRTIFIISMYKDSQPRGMAVTISVKSEKISTLSCENKIISFKEMNPPDNIKDTKSDIIFFQRSVPGHDNKMQFESSSYEGYFLACEKERDLFKLILKKEDECGDRSIMFTVQNED | 0.534 | – | – | 2.6 |
| human IL-18 C38S, C68S, L144C (SEQ ID NO:9) monopegylated at C144 with 20K PEG (ligand, methoxy polyethylene glycol maleimide, 20,000 Da, on Cys 144, also called IL-18 C144PEG20K) YFGKLESKLSVIRNLNDQVLFIDQGNRPLFEDMTDSDSRDNAPRTIFIISMYKDSQPRGMAVTISVKSEKISTLSCENKIISFKEMNPPDNIKDTKSDIIFFQRSVPGHDNKMQFESSSYEGYFLACEKERDLFKLILKKEDECGDRSIMFTVQNED | 5.19 | – | 0.071 mg/L and 0.092 mg/L | 81.5 |
| human IL-18 C38S, C68S, D157C (SEQ ID NO:10) (ligand, Non-pegylated substitution mutant; also called IL-18 C157 (C38S, C68S, D157C)) YFGKLESKLSVIRNLNDQVLFIDQGNRPLFEDMTDSDSRDNAPRTIFIISMYKDSQPRGMAVTISVKSEKISTLSCENKIISFKEMNPPDNIKDTKSDIIFFQRSVPGHDNKMQFESSSYEGYFLACEKERDLFKLILKKEDELGDRSIMFTVQNEC | 0.41 | – | – | 2 |
| human IL-18 C38S, C68D, D157C (SEQ ID NO:8) monopegylated at C157 with 30K PEG (ligand, methoxy polyethylene glycol maleimide, 30,000 Da, on Cys 157, also called IL-18 C157PEG30K; 157C-30K) YFGKLESKLSVIRNLNDQVLFIDQGNRPLFEDMTDSDSRDNAPRTIFIISMYKDSQPRGMAVTISVKDEKISTLSCENKIISFKEMNPPDNIKDTKSDIIFFQRSVPGHDNKMQFESSSYEGYFLACEKERDLFKLILKKEDELGDRSIMFTVQNEC | 5.33 | – | 0.094 mg/L and 0.043 mg/L | 68.5 |
| human IL-18 C38S, C68S, D157C (SEQ ID NO:10) monopegylated at C157 with 30K PEG (ligand, methoxy polyethylene glycol maleimide, 30,000 Da, on Cys 157, also called IL-18 C157PEG30K; 157C-30K) YFGKLESKLSVIRNLNDQVLFIDQGNRPLFEDMTDSDSRDNAPRTIFIISMYKDSQPRGMAVTISVKSEKISTLSCENKIISFKEMNPPDNIKDTKSDIIFFQRSVPGHDNKMQFESSSYEGYFLACEKERDLFKLILKKEDELGDRSIMFTVQNEC | 6.34 | – | 0.047 mg/L | 47 |
| human IL-18 C38S, C68D, D157C (SEQ ID NO:8) monopegylated at C157 with 40K PEG (ligand, methoxy polyethylene glycol maleimide, 40,000 Da, on Cys 157, also called IL-18 C157PEG40K; 157C-40K) YFGKLESKLSVIRNLNDQVLFIDQGNRPLFEDMTDSDSRDNAPRTIFIISMYKDSQPRGMAVTISVKDEKISTLSCENKIISFKEMNPPDNIKDTKSDIIFFQRSVPGHDNKMQFESSSYEGYFLACEKERDLFKLILKKEDELGDRSIMFTVQNEC | 22.9 | – | – | 278 |
| human IL-18 C38S, C68D, L144C (SEQ ID NO:7) monopegylated at C144 with 20K PEG (ligand, methoxy polyethylene glycol maleimide, 20,000 Da, on Cys 144, also called IL-18 C144PEG20K) YFGKLESKLSVIRNLNDQVLFIDQGNRPLFEDMTDSDSRDNAPRTIFIISMYKDSQPRGMAVTISVKDEKISTLSCENKIISFKEMNPPDNIKDTKSDIIFFQRSVPGHDNKMQFESSSYEGYFLACEKERDLFKLILKKEDECGDRSIMFTVQNED | 2.69 | – | 0.058 mg/L and 0.066 mg/L and 0.042 mg/L | 55.3 |
| human IL-18 C38S, C68D, D157C (SEQ ID NO:8) monopegylated at C157 with 20K PEG (ligand, methoxy polyethylene glycol maleimide, 20,000 Da, on Cys 157, also called IL-18 C157PEG20K; 157C-20K) YFGKLESKLSVIRNLNDQVLFIDQGNRPLFEDMTDSDSRDNAPRTIFIISMYKDSQPRGMAVTISVKDEKISTLSCENKIISFKEMNPPDNIKDTKSDIIFFQRSVPGHDNKMQFESSSYEGYFLACEKERDLFKLILKKEDELGDRSIMFTVQNEC | 5.16 | – | – | 37.3 |
